Substrate in this data set: CCCCCCCCCCCCCCCCOc1cc(COC(=O)Nc2ccc3c(C(F)(F)F)cc(=O)oc3c2)ccc1OP(=O)(O)O[C@@H]1[C@H](O)[C@H](O)[C@@H](OP(=O)(O)O)[C@H](OP(=O)(O)O)[C@H]1O
Put plainly: purified protein. To be noted: Ca2+.

The values below come from paper PMC10980208, “A novel micellular fluorogenic substrate for quantitating the activity of 1-phosphatidylinositol 4,5-bisphosphate phosphodiesterase gamma (PLCγ) enzymes” (PLOS ONE, 2024).

B1: PLCγ1 (Homo sapiens) (protein)
chain: AGAASPCANGCGPGAPSDAEVLHLCRSLEVGTVMTLFYSKKSQRPERKTFQVKLETRQITWSRGADKIEGAIDIREIKEIRPGKTSRDFDRYQEDPAFRPDQSHCFVILYGMEFRLKTLSLQATSEDEVNMWIKGLTWLMEDTLQAPTPLQIERWLRKQFYSVDRNREDRISAKDLKNMLSQVNYRVPNMRFLRERLTDLEQRSGDITYGQFAQLYRSLMYSAQKTMDLPFLEASTLRAGERPELCRVSLPEFQQFLLDYQGELWAVDRLQVQEFMLSFLRDPLREIEEPYFFLDEFVTFLFSKENSVWNSQLDAVCPDTMNNPLSHYWISSSHNTYLTGDQFSSESSLEAYARCLRMGCRCIELDCWDGPDGMPVIYHGHTLTTKIKFSDVLHTIKEHAFVASEYPVILSIEDHCSIAQQRNMAQYFKKVLGDTLLTKPVEISADGLPSPNQLKRKILIKHKKLAEGSAYEEVPTSMMYSENDISNSIKNGILYLEDPVNHEWYPHYFVLTSSKIYYSEETSSDQGNEDEEEPKEVSSSTELHSNEKWFHGKLGAGRDGRHIAERLLTEYCIETGAPDGSFLVRESETFVGDYTLSFWRNGKVQHCRIHSRQDAGTPKFFLTDNLVFDSLYDLITHYQQVPLRCNEFEMRLSEPVPQTNAHESKEWYHASLTRAQAEHMLMRVPRDGAFLVRKRNEPNSYAISFRAEGKIKHCRVQQEGQTVMLGNSEFDSLVDLISYYEKHPLYRKMKLRYPINEEALEKIGTAEPDYGALYEGRNPGFYVEANPMPTFKCAVKALFDYKAQREDELTFIKSAIIQNVEKQEGGWWRGDYGGKKQLWFPSNYVEEMVNPVALEPEREHLDENSPLGDLLRGVLDVPACQIAIRPEGKNNRLFVFSISMASVAHWSLDVAADSQEELQDWVKKIREVAQTADARLTEGKIMERRKKIALELSELVVYCRPVPFDEEKIGTERACYRDMSSFPETKAEKYVNKAKGKKFLQYNRLQLSRIYPKGQRLDSSNYDPLPMWICGSQLVALNFQTPDKPMQMNQALFMTGRHCGYVLQPSTMRDEAFDPFDKSSLRGLEPCAISIEVLGARHLPKNGRGIVCPFVEIEVAGAEYDSTKQKTEFVVDNGLNPVWPAKPFHFQISNPEFAFLRFVVYEEDMFSDQNFLAQATFPVKGLKTGYRAVPLKNNYSEDLELASLLIKIDIFPAKENGDLSPFSGTSLRERGSDASGQLFHGRAREGSFESRYQQPFEDFRISQEHLADHFDSRERRAPRRTRVNGDNRL
Usually Km stands for the concentration of substrate that gives half-maximal velocity. The term Vmax denotes the top rate of the reaction or transport when substrate is in excess. The term kcat denotes the maximal rate divided by the concentration of active sites. What is called kcat/Km is the turnover number divided by the Michaelis constant. For the protein B1, the Michaelis constant (Km) is 27.7 ± 14.5 µM, the Vmax was 0.35 µmol/min/mg, the kcat is 0.833 ± 0.367 s⁻¹ and the kcat/Km came out at 32700 ± 6670 M⁻¹ s⁻¹.

B2: PLCγ2 (Homo sapiens) (protein)
chain: MSTTVNVDSLAEYEKSQIKRALELGTVMTVFSFRKSTPERRTVQVIMETRQVAWSKTADKIEGFLDIMEIKEIRPGKNSKDFERAKAVRQKEDCCFTILYGTQFVLSTLSLAADSKEDAVNWLSGLKILHQEAMNASTPTIIESWLRKQIYSVDQTRRNSISLRELKTILPLINFKVSSAKFLKDKFVEIGAHKDELSFEQFHLFYKKLMFEQQKSILDEFKKDSSVFILGNTDRPDASAVYLHDFQRFLIHEQQEHWAQDLNKVRERMTKFIDDTMRETAEPFLFVDEFLTYLFSRENSIWDEKYDAVDMQDMNNPLSHYWISSSHNTYLTGDQLRSESSPEAYIRCLRMGCRCIELDCWDGPDGKPVIYHGWTRTTKIKFDDVVQAIKDHAFVTSSFPVILSIEEHCSVEQQRHMAKAFKEVFGDLLLTKPTEASADQLPSPSQLREKIIIKHKKLGPRGDVDVNMEDKKDEHKQQGELYMWDSIDQKWTRHYCAIADAKLSFSDDIEQTMEEEVPQDIPPTELHFGEKWFHKKVEKRTSAEKLLQEYCMETGGKDGTFLVRESETFPNDYTLSFWRSGRVQHCRIRSTMEGGTLKYYLTDNLTFSSIYALIQHYRETHLRCAEFELRLTDPVPNPNPHESKPWYYDSLSRGEAEDMLMRIPRDGAFLIRKREGSDSYAITFRARGKVKHCRINRDGRHFVLGTSAYFESLVELVSYYEKHSLYRKMRLRYPVTPELLERYNMERDINSLYDVSRMYVDPSEINPSMPQRTVKALYDYKAKRSDELSFCRGALIHNVSKEPGGWWKGDYGTRIQQYFPSNYVEDISTADFEELEKQIIEDNPLGSLCRGILDLNTYNVVKAPQGKNQKSFVFILEPKQQGDPPVEFATDRVEELFEWFQSIREITWKIDTKENNMKYWEKNQSIAIELSDLVVYCKPTSKTKDNLENPDFREIRSFVETKADSIIRQKPVDLLKYNQKGLTRVYPKGQRVDSSNYDPFRLWLCGSQMVALNFQTADKYMQMNHALFSLNGRTGYVLQPESMRTEKYDPMPPESQRKILMTLTVKVLGARHLPKLGRSIACPFVEVEICGAEYDNNKFKTTVVNDNGLSPIWAPTQEKVTFEIYDPNLAFLRFVVYEEDMFSDPNFLAHATYPIKAVKSGFRSVPLKNGYSEDIELASLLVFCEMRPVLESEEELYSSCRQLRRRQEELNNQLFLYDTHQNLRNANRDALVKEFSVNENQLQLYQEKCNKRLREKRVSNSKFYS
On to B2, for which the Km turned out to be 4.6 ± 0.8 µM, the Vmax was found to be 0.019 µmol/min/mg, the kcat turned out to be 0.045 ± 0.00333 s⁻¹ and the kcat/Km was 10000 ± 1670 M⁻¹ s⁻¹.
